The assay addresses fluorescein-labelled divalent stargazin-derived peptide ligand. Put plainly: fluorescence polarisation; direct titration: 50 nM fluorescein-labelled stargazin ligand (divalent or monovalent) against increasing concentrations of PDZ domains; apparent KD. Background: In fluorescence polarisation assays a small probe gives low polarisation when free and higher when bound to something large.

For “SAP97 tandem PDZ domains 1 and 2 (SAP97-12), from pET-NO (domain or fragment)”, the Kd is 199 nM.
